Here are results for one substance from paper PMC6675082.

This assay concerns the target NpDps4 (Dps4 from Nostoc punctiforme ATCC 29133) (Nostoc punctiforme ATCC 29133). The assay can be described thus: crystal structure; sitting-drop vapour diffusion, 25% SOKALAN HP 66, 0.1 M HEPES pH 7.0, 0.2 M NaOAc, room temperature; metal-free, Fe2+-soaked and Zn2+-soaked crystals; four molecules in the asymmetric unit, a third of the dodecameric hollow sphere.

The substance “NpDps4 (Dps4 from Nostoc punctiforme ATCC 29133) (natural protein)” gave a stoichiometry N of 12.

As usually defined, the stoichiometry N is the number of molecules, sites or subunits per partner or assembly.
